Six molecules from patent publication US20200385479A1 (LYVGEN BIOPHARMA, published 2020) can be followed below.

Usually Kd stands for the concentration at which binding is half-saturated. Low values mean higher affinity, high ones lower affinity. What is called koff is a measure of how fast the partners let go of each other. High values mean fast dissociation, low ones slow dissociation. In general, kon refers to the second-order rate constant of association. Read a high kon as faster complex formation. In general, EC50 (read off the curve) refers to the concentration at which the effect is half-maximal.

Residue numbers refer to the chain shown, from its start. In names and notes the source's numbering stands.

Sequences and labels used below:
B1: LYV390 (30C11-IgG4) (antibody, V domains shown)
VH: QIQLVQSGPELKKPGESVKISCKASGYTFTDYAMHWVKQAPGKALKWMGLINTYTGKPTYVDDLKGRFVFSLEASASTAKLQISNLKNEDTAIYFCARYYHDGTYYGWFANWGQGTLVTVSS
VL: DTVLTQSPALAVSPGERVTVSCGATESVSTALNWYQQKPGQQPRLLIYGASNLESGVPARFSGSGSGTDFTLSIDPVEADDTATYFCQQTWNDPLTFGSGTKLEIKR
notes: Chimeric antibody, human IgG4 S228P / human kappa; also called 30C11 in hG4SP / human kappa
B2: LYV370 (20A12-IgG4) (antibody, V domains shown)
VH: QIQLVQSGPELKKPGETVKISCKASGYTFTTYGMSWVKQAPGKGLKWMGWINTYSGVPTYADDFKGRFAFSLETSASTAYLQINNLKNEDMAIYFCARGYGSPDYWGQGTTLTVSS
VL: QIVLTQSPAIMSASPGEKVTMTCSASSSVSYMNWYQQKSGTSPKRWIFDTSKLASGVPARFSGSGSGTSYSLTISSMEAEDAATYYCQQWSGNPPISTFGSGTKLEIKR
notes: Chimeric antibody: hybridoma variable domains on human IgG4 constant region with hinge S228P (EU numbering) and human kappa constant region; S228P is already in the full chain entry; also called 20A12 in human IgG4SP / human kappa
B3: LYV402 (26B3-IgG4) (antibody, V domains shown)
VH: EVKLLESGGGLVQPGGSLKLSCAASGFDFSRYWMSWVRQAPGKGLEWIGEINPDSNPINYTPSLKDKFIISRDNAKNTLYLQMSKVRSEDTALYYCARDGSSSRYFDVWGAGTTVTVSS
VL: DIVMTQSPATLSVTPGDRVSLSCRASQSISDYLHWYQQKSHESPRLLIKYVSQSISGIPSRFSGSGSGSDFTLSINSVEPEDVGVYYCQNGHSFPPTFGGGTKLEIKR
notes: Chimeric antibody, human IgG4 S228P / human kappa; also called 26B3b in hG4SP / human kappa
B4: LYV371 (11E10-IgG4) (antibody, V domains shown)
VH: QVQLQQSGAELVRPGASVTLSCKASGYTFAGFEMHWIKQTPVHGLGWIGAIDPKTGGTDYNQKFKDKALLTADKSSNTAYMELRSLTSEDSAVYYCTRDLGYFDVWGTGTTVTVSS
VL: DIQMTQTTSSLSASLGDRVTISCRASQDIRSNLNWYQQKPDGTVKLLIYYTSRLHSGVPSRFSGSGSGTDYSLTISNLEQEDIATYFCQQSEKLPRTFGGGTKLEIRR
notes: Chimeric antibody, human IgG4 S228P / human kappa; also called 11E10 in human IgG4SP / human Kappa
B5: LYV372 (23D2-IgG4) (antibody, V domains shown)
VH: QVQLQQSGAELVRPGSSVKISCKASGYAFSIYWMNWVKQRPGQGLEWIGQIYPGDGYTNYNGKFKGKATLTADKSSSTAYMQLSSLTSEDSAVYFCARGQLGLDGYWGQGTTLTVSS
VL: QIVLTQSPTIMSASPGEKVTMTCSASSSVSYIYWYQQKPGSSPRLLIYDTSNLASGVPVRFSGSGSGTSYSLTISRMEAEDAATYYCQQWNIYPYTFGGGTKLEIKR
notes: Chimeric antibody, human IgG4 S228P / human kappa; also called 23D2 in human IgG4S; 23D2b in human Kappa
B6: LYV375 (22F2-IgG4) (antibody, V domains shown)
VH: B5 VH with Q1E, Q3K, Q5V, Q6E, I31L
VL: B5 VL with T9A
notes: Chimeric antibody, human IgG4 S228P / human kappa; also called 22F2 in human IgG4SP / human Kappa

One assay deals with T1, CD137 antigen (Octet antigen binding assay) (UniProt Q07011 24-186, limits assumed).
T1 construct: also called 4-1BB; TNFRSF9
Description: BLI, Octet Red 96, antibody on anti-human Fc (AHC) biosensors, 1:1 model. The procedure:
The chimeric antibodies were tested in an antigen binding assay on Octet Red 96 to estimate binding kinetics. Antibodies were loaded onto anti-human Fc (AHC) biosensors. Loaded sensors were dipped into a serial dilution of each […] (300 nM, 1:3 down, 7 points) in assay buffer (PBS with 0.1% BSA, 0.02% Tween-20 (pH 7.2)).
Background: Biolayer interferometry detects binding as a change in optical thickness at a sensor tip.
In turn, B1 yielded a Kd of 5.3 nM, a koff of 0.0014 s⁻¹ and an association rate constant (kon) of 260000 M⁻¹ s⁻¹.

As to B2, the Kd worked out at 5.7 nM, the koff worked out at 0.001 s⁻¹ and the kon turned out to be 180000 M⁻¹ s⁻¹.

Regarding B3, the Kd was found to be 2.1 nM, the koff was 0.00034 s⁻¹ and the kon came to 160000 M⁻¹ s⁻¹.

As to B4, the Kd turned out to be 3.8 nM, the koff stood at 0.0011 s⁻¹ and the kon turned out to be 280000 M⁻¹ s⁻¹.

In the case of B5, binding was characterised by a dissociation constant (Kd) of 5.8 nM, the koff was determined as 0.0016 s⁻¹ and the kon worked out at 280000 M⁻¹ s⁻¹.

Turning to B6, binding was characterised by a dissociation constant (Kd) of 8.2 nM, the koff was determined as 0.0023 s⁻¹ and the kon came to 280000 M⁻¹ s⁻¹.

For another assay, the target named is T2, human CD137-His tag protein.
T2 construct: It differs from the cell-surface CD137 and the Octet antigen; also called Sino Biological Inc. Cat #10377-H08H-100; not shown: C-terminal His tag of the vendor's product (Sino Biological Cat #10377-H08H-100)
T2 sequence (chain, as listed by the source limits assumed): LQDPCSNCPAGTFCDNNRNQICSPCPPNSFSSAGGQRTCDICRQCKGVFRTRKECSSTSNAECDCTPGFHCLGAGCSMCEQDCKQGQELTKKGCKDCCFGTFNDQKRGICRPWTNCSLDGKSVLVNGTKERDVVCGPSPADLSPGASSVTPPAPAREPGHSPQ
Description: ELISA, plate coated with human CD137-His at 1 ug/ml, anti-human IgG-HRP, A450. The procedure: CD137 protein (human CD137-His tag protein (Sino Biological Inc. Cat #10377-H08H-100) or rhesus monkey CD137-His (Sino Biological Inc. Cat #90305-K08H-100)) was diluted in PBS to 1 ug/ml and used to coat an ELISA plate (Corning, Cat #9018, high binding) at a concentration of 50 ul/well. The plate was incubated overnight at 4° C. The plate was then decanted and washed with PBS-T, and 200 ul/well assay diluent (1×PBS/1% BSA/0.05% Tween-20/0.05% proclin 300) was added. After a 3 hour incubation at room temperature, the plate was washed with PBS-T three times. The testing antibodies were diluted in assay diluent to 0, 0.000003, 0.00003, 0.0003, 0.003, 0.03, and 0.3 ug/ml or approximately 0, 0.00002, 0.0002, 0.002, 0.02, 0.2 and 2 nM and then added to the plate (50 ul/well). The plate was incubated for one hour at 37° C. and then washed three times with PBS-T. Anti-human IgG-HRP conjugate (Bethyl Cat #A80-319P) at a 1:10,000 dilution was added to the plate (100 ul/well). The plate was incubated for 0.5 hour at 37° C., followed by washing with PBS-T three times. The TMB substrate solution was added (100 ul/well). The color was allowed to develop for 8 minutes before it was stopped with 100 ul/well 2N H₂SO₄. Absorbance at 450 nm was determined with an ELISA reader.
On the technique in general: In an ELISA, binding on a coated surface is turned into a signal by an enzyme label.
As to B1, the “EC50 (read off the curve)” value is around 0.04 nM.

Consider B2, for which the binding result was “binds”.

Take B3: the “EC50 (read off the curve)” value was around 0.005 nM.

For the molecule B6, the “EC50 (read off the curve)” value lay in the range of 0.01 to 0.02 nM.
